According to PMC4113483:

Target: Mu-HSSKLQ-AMC (morpholinocarbonyl-His-Ser-Ser-Lys-Leu-Gln-7-amido-4-methylcoumarin), fluorogenic PSA substrate
Assay: Spectrofluorimetric pre-steady-state (burst) and steady-state kinetics of AMC release (excitation 380 nm, emission 460 nm)
Conditions: 37.0 C, 100 mM NaCl, 10 mM CaCl2, 25 mM bis-tris-HCl and 25 mM tris-HCl between pH 6.5 and 9.0 (the buffer used at each pH is not stated)

pKES1, group 1 of PSA (unassigned; tentatively Lys95E of the kallikrein loop) (pH 6.5-9.0): 8.59 pH units
pKES2, group 2 of PSA (unassigned; tentatively a histidine, possibly His57 or His172) (pH 6.5-9.0): 5.11 pH units
pKU1, group 1 of PSA (unassigned; tentatively Lys95E of the kallikrein loop) (pH 6.5-9.0): 8.02 pH units
pKU2, group 2 of PSA (unassigned; tentatively a histidine, possibly His57 or His172) (pH 6.5-9.0): 7.61 pH units
Ks (pH 6.5): 490 µM
Ks (pH 7.0): 120 µM
Ks (pH 7.5): 62 µM
Ks (pH 8.0): 42 µM
Ks (pH 8.5): 55 µM
Ks (pH 9.0): 75 µM
Substance: Prostate-specific antigen (PSA, kallikrein-related peptidase 3, KLK3)
